Results reported in PMC11316641 (Cell, 2024).

Tests used:
[1] = molecular target: WDR11-FAM91A1 complex (human) (UniProt Q658Y4); assay: BLI
SEC-MALS = molecular target: the molecule itself; assay: SEC-MALS

Chain of WDR11-FAM91A1 complex (human) (Q658Y4 whole entry, one chain of several): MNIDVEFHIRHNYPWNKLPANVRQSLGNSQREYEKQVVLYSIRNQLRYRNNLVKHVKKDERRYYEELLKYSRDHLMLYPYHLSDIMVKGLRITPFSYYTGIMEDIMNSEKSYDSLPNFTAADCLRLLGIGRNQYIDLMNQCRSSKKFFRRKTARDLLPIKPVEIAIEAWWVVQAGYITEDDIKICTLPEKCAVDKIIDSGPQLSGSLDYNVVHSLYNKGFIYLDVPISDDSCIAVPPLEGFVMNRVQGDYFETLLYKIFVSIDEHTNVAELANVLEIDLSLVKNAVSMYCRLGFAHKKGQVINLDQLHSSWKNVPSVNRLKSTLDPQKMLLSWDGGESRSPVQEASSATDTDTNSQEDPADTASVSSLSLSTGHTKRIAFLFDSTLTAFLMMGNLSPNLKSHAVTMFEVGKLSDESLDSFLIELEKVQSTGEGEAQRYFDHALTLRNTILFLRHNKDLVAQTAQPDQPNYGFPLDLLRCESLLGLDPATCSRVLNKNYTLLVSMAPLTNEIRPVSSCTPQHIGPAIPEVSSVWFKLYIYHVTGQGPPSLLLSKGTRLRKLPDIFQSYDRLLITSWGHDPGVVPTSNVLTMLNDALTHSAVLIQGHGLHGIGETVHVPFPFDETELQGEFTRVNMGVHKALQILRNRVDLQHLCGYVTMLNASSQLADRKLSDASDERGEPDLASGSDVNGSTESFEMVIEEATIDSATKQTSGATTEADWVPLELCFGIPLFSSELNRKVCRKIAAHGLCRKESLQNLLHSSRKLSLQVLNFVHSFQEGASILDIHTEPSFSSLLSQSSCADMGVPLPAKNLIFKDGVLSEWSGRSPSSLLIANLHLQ

| Kd [1] [µM] | Molecule | stoichiometry N (SEC-MALS) |
| --- | --- | --- |
| 20.8 | CI-MPR AC1-WT peptide |  |
|  | WDR11 (natural protein, human) MLPYTVNFKVSARTLTGALNAHNKAAVDWGWQGLIAYGCHSLVVVIDSITAQTLQVLEKHKADVVKVKWARENYHHNIGSPYCLRLASADVNGKIIVWDVAAGVAQCEIQEHAKPIQDVQWLWNQDASRDLLLAIHPPNYIVLWNADTGTKLWKKSYADNILSFSFDPFDPSHLTLLTSEGIVFISDFSPSKPPSGPGKKVYISSPHSSPAHNKLATATGAKKALNKVKILITQEKPSAEFITLNDCLQLAYLPSKRNHMLLLYPREILILDLEVNQTVGVIAIERTGVPFLQVIPCFQRDGLFCLHENGCITLRVRRSYNNIFTTSNEEPDPDPVQELTYDLRSQCDAIRVTKTVRPFSMVCCPVNENAAALVVSDGRVMIWELKSAVCNRNSRNSSSGVSPLYSPVSFCGIPVGVLQNKLPDLSLDNMIGQSAIAGEEHPRGSILREVHLKFLLTGLLSGLPAPQFAIRMCPPLTTKNIKMYQPLLAVGTSNGSVLVYHLTSGLLHKELSIHSCEVKGIEWTSLTSFLSFATSTPNNMGLVRNELQLVDLPTGRSIAFRGERGNDESAIEMIKVSHLKQYLAVVFRDKPLELWDVRTCTLLREMSKNFPTITALEWSPSHNLKSLRKKQLATREAMARQTVVSDTELSIVESSVISLLQEAESKSELSQNISAREHFVFTDIDGQVYHLTVEGNSVKDSARIPPDGSMGSITCIAWKGDTLVLGDMDGNLNFWDLKGRVSRGIPTHRSWVRKIRFAPGKGNQKLIAMYNDGAEVWDTKEVQMVSSLRSGRNVTFRILDVDWCTSDKVILASDDGCIRVLEMSMKSACFRMDEQELTEPVWCPYLLVPRASLALKAFLLHQPWNGQYSLDISHVDYPENEEIKNLLQEQLNSLSNDIKKLLLDPEFTLLQRCLLVSRLYGDESELHFWTVAAHYLHSLSQEKSASTTAPKEAAPRDKLSNPLDICYDVLCENAYFQKFQLERVNLQEVKRSTYDHTRKCTDQLLLLGQTDRAVQLLLETSADNQHYYCDSLKACLVTTVTSSGPSQSTIKLVATNMIANGKLAEGVQLLCLIDKAADACRYLQTYGEWNRAAWLAKVRLNPEECADVLRRWVDHLCSPQVNQKSKALLVLLSLGCFFSVAETLHSMRYFDRAALFVEACLKYGAFEVTEDTEKLITAIYADYARSLKNLGFKQGAVLFASKAGAAGKDLLNELESPKEEPIEE | 2 |
